# B1: His-tagged association domain of CaMKIIα, wild type (domain or fragment, rat, UniProt P11275 345-478, looked up)
# chain: VRKQEIIKVTEQLIEAISNGDFESYTKMCDPGMTAFEPEALGNLVEGLDFHRFYFENLWSRNSKPVHTTILNPHIHLMGDESACIAYIRITQYLDAGGIPRTAQSEETRVWHRRDGKWQIVHFHRSGAPSVLPH
# notes: association domain of CaMKIIα, rat, 345-end; Printed molecular weight of the His-tagged domain: 19,800; The limits 345-end are stated for the library fragment; they are not restated for the HeLa expression construct; also called AD WT; source: HeLa, transfected, purified (Ni-Sepharose)
# Molecular target: the molecule itself
# Assay: native gel or EMSA; His-tagged association domains purified from HeLa cells, incubated in 25 mM HEPES pH 7.3, 50 mM KCl, 1 mM DTT for 1 hour at 37°C; native-PAGE, silver staining
protein,measurement,value
B1,binding result,binds

# Reference: publication PMC4370617, “Development of a Molecularly Evolved, Highly Sensitive CaMKII FRET Sensor with Improved Expression Pattern” (PLoS ONE, 2015)
